Drawing on patent publication US20150368652A1, this text covers total voltage-gated potassium current retained for 1 substance.

The target of this assay is Kcna2 protein (Kv1.2), endogenous in rat dorsal root ganglion neurons (rat) (UniProt P63142). Put plainly: cell-based or functional assay.
Chain of UniProt P63142 (P63142 whole entry): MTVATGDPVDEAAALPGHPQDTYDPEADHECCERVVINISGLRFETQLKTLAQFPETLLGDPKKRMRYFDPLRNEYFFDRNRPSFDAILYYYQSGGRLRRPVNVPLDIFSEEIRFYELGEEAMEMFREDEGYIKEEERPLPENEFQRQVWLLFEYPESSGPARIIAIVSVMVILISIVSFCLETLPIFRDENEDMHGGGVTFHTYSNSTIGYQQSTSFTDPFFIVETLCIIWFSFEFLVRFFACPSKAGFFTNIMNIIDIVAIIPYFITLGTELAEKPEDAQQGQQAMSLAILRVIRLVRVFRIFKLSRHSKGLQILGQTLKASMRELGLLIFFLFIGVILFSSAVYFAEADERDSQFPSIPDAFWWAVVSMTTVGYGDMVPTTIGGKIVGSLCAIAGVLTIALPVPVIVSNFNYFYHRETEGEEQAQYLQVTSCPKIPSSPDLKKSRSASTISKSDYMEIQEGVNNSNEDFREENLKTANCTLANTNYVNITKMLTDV

As to “maurotoxin (from UniProt P80719 1-34) (peptide)”, the total voltage-gated potassium current retained at +50 mV after 100 nM MTX, large DRG neurons, Kcna2 antisense-treated group (Kcna2 downregulated) was 92.3 % of current; the total voltage-gated potassium current retained at +50 mV after 100 nM MTX, large DRG neurons, control group (whole-cell voltage clamp) is 81.7 % of current; the total voltage-gated potassium current retained at +50 mV after 100 nM MTX, medium DRG neurons, Kcna2 antisense-treated group (Kcna2 downregulated) was 94.9 % of current; the total voltage-gated potassium current retained at +50 mV after 100 nM MTX, medium DRG neurons, control group (whole-cell voltage clamp) is 85.1 % of current.
